Tests used:
Experiment in all cases: SPR
Settings in all cases: both partners purified
[1] = molecular target: PfHsp70-1∆G (Plasmodium falciparum 3D7, UniProt Q8IB24 1-677, deletion of residues 632-664)
[2] = molecular target: T1, Plasmodium falciparum Hsp70-1 (PfHsp70-1), wild type (Plasmodium falciparum 3D7, UniProt Q8IB24 1-677)
T1 construct: PfHsp70-1, cytosolic Hsp70 of Plasmodium falciparum 3D7, NCBI XP_001349336.1; called the full length PfHsp70-1 protein; pQE30 vector with N-terminal (His)6-tag; also called WT; wild type PfHsp70-1

[3] = molecular target: PfHsp70-1_(G632-664) (Plasmodium falciparum 3D7, UniProt Q8IB24 1-677, 632[…]664 to 632[…]664)
[4] = molecular target: PfHsp70-1_(G632) (Plasmodium falciparum 3D7, UniProt Q8IB24 1-677, 632GGMPGGMP639 to 632AALAAALA639)
[5] = molecular target: PfHsp70-1_(G648) (Plasmodium falciparum 3D7, UniProt Q8IB24 1-677, 648[…]657 to 648[…]657)

Measured: binding result

B1: Plasmodium falciparum Hsp70-Hsp90 organising protein (PfHop) (natural protein, UniProt Q8ILC1 1-564, looked up)
chain: MVNKEEAQRLKELGNKCFQEGKYEEAVKYFSDAITNDPLDHVLYSNLSGAFASLGRFYEALESANKCISIKKDWPKGYIRKGCAEHGLRQLSNAEKTYLEGLKIDPNNKSLQDALSKVRNENMLENAQLIAHLNNIIENDPQLKSYKEENSNYPHELLNTIKSINSNPMNIRIILSTCHPKISEGVEKFFGFKFTGEGNDAEERQRQQREEEERRKKKEEEERKKKEEEEMKKQNRTPEQIQGDEHKLKGNEFYKQKKFDEALKEYEEAIQINPNDIMYHYNKAAVHIEMKNYDKAVETCLYAIENRYNFKAEFIQVAKLYNRLAISYINMKKYDLAIEAYRKSLVEDNNRATRNALKELERRKEKEEKEAYIDPDKAEEHKNKGNEYFKNNDFPNAKKEYDEAIRRNPNDAKLYSNRAAALTKLIEYPSALEDVMKAIELDPTFVKAYSRKGNLHFFMKDYYKALQAYNKGLELDPNNKECLEGYQRCAFKIDEMSKSEKVDEEQFKKSMADPEIQQIISDPQFQIILQKLNENPNSISEYIKDPKIFNGLQKLIAAGILKVR
notes: PfHop, Hsp70-Hsp90 organising protein of Plasmodium falciparum
binds: all assays above

— publication PMC7926355, “Mutation of GGMP Repeat Segments of Plasmodium falciparum Hsp70-1 Compromises Chaperone Function and Hop Co-Chaperone Binding” (International Journal of Molecular Sciences, 2021)
